According to the supplement of paper PMC12667976:
± gives the standard error.

B1: library; numbered along this chain (parent)
chain: MATDAALRRLLRLHRTEIAVAVDSAFPLLHALADHDVVPEDKFQETLHLKEKEGCPQAFHALLSWLLTQDSTAILDFWRVLFKDYNLERYGRLQPILDSFPKDVDLSQPRKGRKPPAVPKALVPPPRLPTKRKASEEARAAAPAALTPRGTASPGSQLKAKPPKKPESSAEQQRLPLGNGIQTMSASVQRAVAMSSGDVPGARGAVEGILIQQVFESGGSKKCIQVGGEFYTPSKFEDSGSGKNKARSSSGPKPLVRAKGAQGAAPGGGEARLGQQGSVPAPLALPSDPQLHQKNEDECAVCRDGGELICCDGCPRAFHLACLSPPLREIPSGTWRCSSCLQATVQEVQPRAEEPRPQEPPVETPLPPGLRSAGEEVRGPPGEPLAGMDTTLVYKHLPAPPSAAPLPGLDSSALHPLLCVGPEGQQNLAPGARCGVCGDGTDVLRCTHCAAAFHWRCHFPAGTSRPGTGLRCRSCSGDVTPAPVEGVLAPSPARLAPGPAKDDTASHEPALHRDDLESLLSEHTFDGILQWAIQSMARPAAPFPS

Variants of: B1
Test: AIRE transcriptional activation functional score (insulin promoter-GFP; nonsense median 0, synonymous median 1) (normalised score); higher = higher AIRE activity (more reporter activation)
Conditions: with insulin promoter-GFP reporter in HEK293
Experimental: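 Deep mutational scan of full-length human AIRE (codon-optimized cDNA, DT-POPCode NNN libraries over three regions) integrated at a Bxb1 landing pad in HEK293 cells carrying an insulin core promoter-GFP reporter at a Flp-In site. Cells were sorted for the top 10% GFP about 14 days after transfection. Variant frequency log-ratios (select vs non-select, TileSeq) were rescaled so that the nonsense median is 0 and the synonymous median is 1, then averaged over biological replicates.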

Variant	AIRE transcriptional activation functional score
Q57E	0.685 ± 0.54
Q57S	0.217 ± 0.41
A532G	0.0621 ± 0.18
G269Y	0.676 ± 0.18
G269K	1.07 ± 0.14
S506L	0.875 ± 0.13
S506G	0.799 ± 0.26
S506C	1.39 ± 0.1
S506K	0.443 ± 0.06
L29M	-0.19 ± 0.15
L122P	0.586 ± 0.2
L122H	0.431 ± 0.75
L122R	0.83 ± 0.43
F43Q	-0.593 ± 0.23
C322K	1.21 ± 0.19
V487A	1.02 ± 0.19
L406D	0.772 ± 0.16
S518K	1.27 ± 0.089
R132E	0.0732 ± 0.14
P280M	1.23 ± 0.074
D41W	0.551 ± 0.1
L93A	0.124 ± 0.2
I74G	0.496 ± 0.28
I74Y	0.19 ± 0.07

Variant	AIRE transcriptional activation functional score
I74H	0.604 ± 0.27
L495H	1.23 ± 0.049
W335A	1.3 ± 0.48
P499D	0.797 ± 0.37
V188M	1.32 ± 0.044
S24H	-0.0302 ± 0.21
S24G	0.358 ± 0.26
H319D	1.24 ± 0.2
D439Q	0.923 ± 0.33
D439S	0.93 ± 0.31
P381C	0.894 ± 0.15
S195I	0.0828 ± 0.16
G313V	1.22 ± 0.2
S248C	1.03 ± 0.18
R513N	0.0982 ± 0.068
L63G	0.772 ± 0.4
P398V	1.31 ± 0.1
L158K	0.11 ± 0.86
R272I	1.08 ± 0.23
P400V	0.815 ± 0.2
L273C	0.741 ± 0.15
A191W	0.116 ± 0.052
G382I	0.702 ± 0.21
K133I	-0.178 ± 0.14

Variant	AIRE transcriptional activation functional score
L323M	1.8 ± 0.078
L323I	0.984 ± 0.34
G197R	1.01 ± 0.3
C314R	0.842 ± 0.34
C314T	1.14 ± 0.34
E383P	0.887 ± 0.35
E383V	1.13 ± 0.23
K159V	1.06 ± 0.78
S71C	0.858 ± 0.3
R174A	0.803 ± 0.46
L97C	0.164 ± 0.14
R351G	1.02 ± 0.21
R351D	0.673 ± 0.086
G305D	1.1 ± 0.17
A246R	0.482 ± 0.19
A246I	0.408 ± 0.11
R79D	0.209 ± 0.067
E40K	-0.28 ± 0.19
P163C	1.48 ± 0.27
S250C	1.23 ± 0.098
L511R	0.813 ± 0.17
A399N	0.798 ± 0.13
A399H	1.63 ± 0.058
L67I	0.391 ± 0.42

Variant	AIRE transcriptional activation functional score
L67V	0.638 ± 0.51
G424C	1.41 ± 0.072
Q262A	1.2 ± 0.35
R336A	1.02 ± 0.3
A5R	1.72 ± 0.62
T364Y	1.11 ± 0.28
V443D	0.0282 ± 0.049
V443W	0.235 ± 0.036
V123F	1.33 ± 0.095
V123N	1.03 ± 0.1
V123S	0.751 ± 0.44
I528V	0.759 ± 0.26
R494F	0.918 ± 0.15
R494Y	0.846 ± 0.36
Q425I	1.07 ± 0.33
L283N	0.486 ± 0.18
L283V	1.12 ± 0.096
P200Q	1.18 ± 0.25
P200G	0.879 ± 0.49
P200D	0.545 ± 0.11
E423M	0.551 ± 0.18
Q358A	0.941 ± 0.3
Q426C	1.4 ± 0.044
T72N	1.15 ± 0.55

Variant	AIRE transcriptional activation functional score
T72A	1.01 ± 0.49
L308S	1.12 ± 0.28
D503C	0.896 ± 0.15
D503Y	1.14 ± 0.12
D503A	0.958 ± 0.2
G274C	0.942 ± 0.21
G274Q	0.131 ± 0.15
D4Y	0.616 ± 0.39
T232D	1.19 ± 0.14
T232G	0.941 ± 0.22
S535V	0.00974 ± 0.14
A205Y	0.153 ± 0.56
A205I	-0.0126 ± 0.15
S187G	0.706 ± 0.22
V420L	0.722 ± 0.31
V420I	0.811 ± 0.046
S411K	1.18 ± 0.21
S411L	1.24 ± 0.24
G155L	0.509 ± 0.4
G155Q	-0.156 ± 0.43
G155D	0.338 ± 0.16
A284F	1.2 ± 0.18
S64T	0.485 ± 0.82
R190V	0.094 ± 0.21

Variant	AIRE transcriptional activation functional score
K221D	0.706 ± 0.07
K221C	0.921 ± 0.048
K294H	0.554 ± 0.27
K294E	0.357 ± 0.087
K259R	0.916 ± 0.19
G201N	1.01 ± 0.12
T183P	0.392 ± 0.43
T130H	0.621 ± 0.2
V345C	1.04 ± 0.15
V345P	1.06 ± 0.22
L366Y	0.821 ± 0.081
L520I	1.23 ± 0.16
L520Q	0.36 ± 0.14
A73D	-0.0868 ± 0.094
K102H	-1.63 ± 1.5
I181K	0.076 ± 0.41
A540L	0.964 ± 0.28
P325W	0.913 ± 0.05
A451E	1.02 ± 0.12
D304G	0.56 ± 0.29
P119E	1.37 ± 0.17
A117G	1.22 ± 0.26
H30A	-0.75 ± 0.63
H30D	0.0821 ± 0.2

Variant	AIRE transcriptional activation functional score
P129E	-0.0453 ± 0.46
G260I	1.39 ± 0.13
A271W	1.6 ± 0.061
R471T	0.747 ± 0.38
L428H	1.48 ± 0.099
S135Q	1.13 ± 0.11
W531C	0.138 ± 0.2
C302Y	0.467 ± 0.065
A193Y	1.05 ± 0.18
V377F	1.15 ± 0.11
C311K	1.13 ± 0.052
Q172P	0.611 ± 0.23
L49C	-0.191 ± 0.94
L49H	-0.538 ± 0.091
D98H	1.3 ± 0.26
P422Q	0.91 ± 0.11
L488F	1.13 ± 0.078
S168Y	1.37 ± 0.18
S168N	0.613 ± 0.67
V37M	-1.53 ± 0.17
F215A	0.568 ± 0.53
R316N	0.525 ± 0.27
R316C	1.22 ± 0.21
